B1: Cell cycle serine/threonine-protein kinase hsk1 (Schizosaccharomyces pombe (strain ATCC 38366 / 972)), P50582 (parent)
chain: MAEAHITLSPKVTHEQQTDIDSECEITEVDDENVNENKSQEMIQDIPARDREEIENITRTFVELQENYRLIEKIGEGTFSSVYKAEDLHYGRYINDWDIQSEVLKESSFGKEKIPVNEDSRKPKYVAIKKIYATSSPARIYNELEILYLLRGSSVIAPLITALRNEDQVLVVLPYYEHTDFRQYYSTFSYRDMSIYFRCLFQAMQQTQTLGIIHRDIKPSNFLFDVRTKHGVLVDFGLAERYDGRQQSHSCRCTNSNAAELAHDFSIAQETSLGYIKNDTRPSKRANRAGTRGFRAPEVLFKCSSQSPKVDIWSAGVILLSFLTKRFPMFNSKDDVDALMEIACIFGKSEMRQCAALHGCTFETNVSTLTEKRVNFRKLILWASCGSASIYKEKLRHKPSQEERLCLDFLEKCLELDCNKRISAEEALDHDFLYLDNLAYEKKDDDTAFDNSFGETSFEKDEDLTAKHLSHILDFKEQEETDEPTSLSKRKRSIDEILPNDALQDGA
partner: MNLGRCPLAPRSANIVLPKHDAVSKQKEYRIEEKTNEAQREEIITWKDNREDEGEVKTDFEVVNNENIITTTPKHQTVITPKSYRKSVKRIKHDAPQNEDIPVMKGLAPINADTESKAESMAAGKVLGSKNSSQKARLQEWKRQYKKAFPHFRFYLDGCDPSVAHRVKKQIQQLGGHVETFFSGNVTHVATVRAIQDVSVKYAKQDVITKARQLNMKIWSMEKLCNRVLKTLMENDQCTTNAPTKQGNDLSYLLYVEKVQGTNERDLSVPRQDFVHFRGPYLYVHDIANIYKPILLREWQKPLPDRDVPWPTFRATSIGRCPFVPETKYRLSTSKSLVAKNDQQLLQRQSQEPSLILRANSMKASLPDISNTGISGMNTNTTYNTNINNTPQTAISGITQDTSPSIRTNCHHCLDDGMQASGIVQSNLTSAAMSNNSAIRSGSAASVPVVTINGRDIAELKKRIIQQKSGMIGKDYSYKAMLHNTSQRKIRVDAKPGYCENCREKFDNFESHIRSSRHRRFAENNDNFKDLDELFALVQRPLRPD

Variants of: B1
Conditions: with him1_schpo him1, O59836

Variant	effect of a mutation on the interaction
MAEAHITLSPKVTHEQQTDIDSECEITEVDDENVNENKSQEMIQDIPARDREEIENITRTFVELQENYRLIEKIGEGTFSSVYKAEDLHYGRYINDWDIQSEVLKESSFGKEKIPVNEDSRKPKYVAIASIYATSSPARIYNELEILYLLRGSSVIAPLITALRNEDQVLVVLPYYEHTDFRQYYSTFSYRDMSIYFRCLFQAMQQTQTLGIIHRDIKPSNFLFDVRTKHGVLVDFGLAERYDGRQQSHSCRCTNSNAAELAHDFSIAQETSLGYIKNDTRPSKRANRAGTRGFRAPEVLFKCSSQSPKVDIWSAGVILLSFLTKRFPMFNSKDDVDALMEIACIFGKSEMRQCAALHGCTFETNVSTLTEKRVNFRKLILWASCGSASIYKEKLRHKPSQEERLCLDFLEKCLELDCNKRISAEEALDHDFLYLDNLAYEKKDDDTAFDNSFGETSFEKDEDLTAKHLSHILDFKEQEETDEPTSLSKRKRSIDEILPNDALQDGA [K129A;K130S]	with no effect
